Assay results as given in US20230340151A1 (Pfizer, published 2023).
Where a chain is given by its changes, count along the chain named.

B1: GUCY2C-1705 (antibody, human IgG1, V domains shown)
VH: EVQLVESGGGLVQPGGSLRLSCAASGFTFSSYWMHWVRQAPGKGLEWIGEIKPSRGFTNVHEKFKDRFTISVDKAKNSAYLQMNSLRAEDTAVYYCTRTITTTEGYWFFDVWGQGTLVTVSS
VL: DIQLTQSPSSLSASVGDRVTITCRASESVDYYGSSLMQWYQQKPGKAPKLLIYAASKLASGVPSRFSGSGSGTDFTLTISSLQPEDFATYYCQQTRKAYTFGQGTKLEIK
notes: full human IgG1/kappa
B2: GUCY2C-1640 (antibody, human IgG1, kappa, V domains shown)
VH: B1 VH with R55N, G56E, F57L
VL: DIQLTQSPSSLSASVGDRVTITCRASESVDYYGSSLLQWYQQKPGKAPKLLIYAASKLASGVPSRFSGSGSGTDFTLTISSLQPEDFATYYCQQTRKAYTFGQGTKLEIKR
B3: GUCY2C-1710 (antibody, human IgG1, V domains shown)
VH: B1 VH with F57W, T97A
VL: B1 VL with G33R, S34H
notes: full human IgG1/kappa
B4: GUCY2C-1713 (antibody, human IgG1, V domains shown)
VH: B1 VH with S31H, Y32T, E104Q
VL: B1 VL with D30N, Y31W
notes: full human IgG1/kappa
B5: GUCY2C-1696 (antibody, human IgG1, V domains shown)
VH: B1 VH with S31T, Y32R, R55N, G56K, F57L, T97A, F109L, D110S, V111D
VL: B1 VL with S34H
notes: full human IgG1/kappa
B6: GUCY2C-1708 (antibody, human IgG1, V domains shown)
VH: B1 VH with S31R, Y32P, R55T, F57W, E104T
VL: B1 VL with G33K, S34H
notes: full human IgG1/kappa
B7: GUCY2C-1706 (antibody, human IgG1, V domains shown)
VH: B1 VH with Y32T, R55N, G56E, F57L
VL: B1 VL
notes: full human IgG1/kappa
B8: GUCY2C-1714 (antibody, human IgG1, V domains shown)
VH: B1 VH with S31H, Y32T, R55T, G56K, F57Y, T97A, T101F, T103R
VL: B1 VL with D30N, Y31W
notes: full human IgG1/kappa
B9: GUCY2C-1703 (antibody, human IgG1, V domains shown)
VH: B1 VH with R55N, G56R, F57W, T58N
VL: B1 VL
notes: full human IgG1/kappa
B10: GUCY2C-0078 (bispecific antibody)
chain 1: DIVLTQSPASLAVSLGQRATISCRAGESVDNFDISFMNWFQQKPGQPPKLLIYAASNQGSGVPARFSGSGSGTDFSLNIHPMEEDDTAMYFCQQSKEVPYTFGGGTKLEIKGGGSGGGGEVQLVESGGGLVQPGGSLRLSCAASGFTFSDYYMTWVRQAPGKGLEWVAFIRNRARGYTSDHNPSVKGRFTISRDNAKNSLYLQMNSLRAEDTAVYYCARDRPSYYVLDYWGQGTTVTVSSGCPPCPAPEAAGAPSVFLFPPKPKDTLMISRTPEVTCVVVDVSHEDPEVKFNWYVDGVEVHNAKTKPREEQYNSTYRVVSVLTVLHQDWLNGKEYKCKVSNKALPAPIEKTISKAKGQPREPQVCTLPPSREEMTKNQVSLWCLVKGFYPSDIAVEWESNGQPENNYKTTPPVLDSDGSFFLYSKLTVDKSRWQQGNVFSCSVMHEALHNHYTQKSLSLSPG
chain 2: DIVMTQSPDSLAVSLGERATINCKSSQSLFNVRSRKNYLAWYQQKPGQPPKLLISWASTRESGVPDRFSGSGSGTDFTLTISSLQAEDVAVYYCKQSYDLFTFGSGTKLEIKGGGSGGGGEVQLQQSGAELARPGASVKLSCKASGYTFTKYWMQWIKQRPGQGLEWIGAIYPGDGFTTYTQKFKGKATLTADKSSNTAYMQLSSLASEDSAVYYCARRNYGRTYGGDYWGQGTSVTVSSGCPPCPAPEAAGAPSVFLFPPKPKDTLMISRTPEVTCVVVDVSHEDPEVKFNWYVDGVEVHNAKTKPREEQYNSTYRVVSVLTVLHQDWLNGKEYKCKVSNKALPAPIEKTISKAKGQPREPQVYTLPPCREEMTKNQVSLSCAVKGFYPSDIAVEWESNGQPENNYKTTPPVLDSDGSFFLVSKLTVDKSRWQQGNVFSCSVMHEALHNHYTQKSLSLSPG
B11: GUCY2C-0105 (bispecific antibody)
chain 1: DIVMTQSPSSLAVSVGEKVTVSCKSSQSLLYSSNQKNYLAWYQQRPGQSPKLLIYWASTRESGVPDRFTGSGSGTDFTLSISSVKAEDLAVYYCQQYYSYPTFGGGTKLEIKGGGSGGGGEVQLVESGGGLVQPGGSLRLSCAASGFTFSDYYMTWVRQAPGKGLEWVAFIRNRARGYTSDHNPSVKGRFTISRDNAKNSLYLQMNSLRAEDTAVYYCARDRPSYYVLDYWGQGTTVTVSSGCPPCPAPEAAGAPSVFLFPPKPKDTLMISRTPEVTCVVVDVSHEDPEVKFNWYVDGVEVHNAKTKPREEQYNSTYRVVSVLTVLHQDWLNGKEYKCKVSNKALPAPIEKTISKAKGQPREPQVCTLPPSREEMTKNQVSLWCLVKGFYPSDIAVEWESNGQPENNYKTTPPVLDSDGSFFLYSKLTVDKSRWQQGNVFSCSVMHEALHNHYTQKSLSLSPG
chain 2: DIVMTQSPDSLAVSLGERATINCKSSQSLFNVRSRKNYLAWYQQKPGQPPKLLISWASTRESGVPDRFSGSGSGTDFTLTISSLQAEDVAVYYCKQSYDLFTFGSGTKLEIKGGGSGGGGEVQLQQSGPELVKPGASVKISCKASGYSFTDYIMLWVKQSHGKSLEWIGNSNPYYGSTSYNLKFKGKATLTVDKSSSTAYMHLNSLTSEDSAVYYCARSGYYGSSPYWYFDVWGAGTTVTVSSGCPPCPAPEAAGAPSVFLFPPKPKDTLMISRTPEVTCVVVDVSHEDPEVKFNWYVDGVEVHNAKTKPREEQYNSTYRVVSVLTVLHQDWLNGKEYKCKVSNKALPAPIEKTISKAKGQPREPQVYTLPPCREEMTKNQVSLSCAVKGFYPSDIAVEWESNGQPENNYKTTPPVLDSDGSFFLVSKLTVDKSRWQQGNVFSCSVMHEALHNHYTQKSLSLSPG
notes: chimeric CD3-GUCY2c diabody-Fc, CD3-0004

Molecular target: T1, Human GUCY2C ECD Cleaved (human, UniProt P25092 24-430)
T1 construct: also called human GUCY2c extracellular domain protein (ECD)
Assay: SPR, human IgG1 against human GUCY2c ECD

T1 sequence (P25092 other isoform, or with tags, fused parts or gaps): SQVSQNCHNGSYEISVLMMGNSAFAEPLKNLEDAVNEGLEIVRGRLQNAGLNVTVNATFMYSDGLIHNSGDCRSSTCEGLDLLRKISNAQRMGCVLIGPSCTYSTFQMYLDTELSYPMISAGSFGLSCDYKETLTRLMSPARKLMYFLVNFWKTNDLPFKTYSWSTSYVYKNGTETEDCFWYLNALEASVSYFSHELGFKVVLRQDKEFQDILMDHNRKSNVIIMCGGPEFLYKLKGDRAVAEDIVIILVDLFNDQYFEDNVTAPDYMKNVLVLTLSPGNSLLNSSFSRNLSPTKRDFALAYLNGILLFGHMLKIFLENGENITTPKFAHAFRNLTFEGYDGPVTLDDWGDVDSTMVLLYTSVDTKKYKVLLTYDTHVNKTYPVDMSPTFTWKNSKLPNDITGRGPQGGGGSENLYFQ

Kd [nM]	koff [s⁻¹]	kon [M⁻¹ s⁻¹]	Binder
6.25	0.00149	239000	B1
13.9	0.00271	195000	B2
5.94	0.00147	248000	B3
6.71	0.00108	161000	B4
12.4	0.00179	144000	B5
9.44	0.00132	140000	B6
9.75	0.00193	198000	B7
10.3	0.00124	121000	B8
10.3	0.00214	210000	B9

Molecular target: T2, Human CD3 epsilon-delta (human)
T2 construct: Single-chain epsilon-linker-delta with His6; also called huCD3
T2 chain: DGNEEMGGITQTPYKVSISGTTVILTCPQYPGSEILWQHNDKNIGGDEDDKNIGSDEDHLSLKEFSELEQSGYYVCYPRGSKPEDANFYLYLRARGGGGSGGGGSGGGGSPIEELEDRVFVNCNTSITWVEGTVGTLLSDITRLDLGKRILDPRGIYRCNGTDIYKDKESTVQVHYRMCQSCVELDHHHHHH
Assay: direct ELISA, coated CD3 epsilon-delta
Experimental: Proteins were screened for binding to recombinant human, cyno and mouse proteins by ELISA. Purified human, cynomolgus, murine GUCY2c ECD or human CD3 epsilon-delta proteins were coated on Nunc-Maxisorb 384-well ELISA plates at 1 μg/ml in 20 μl in PBS-CMF (calcium and magnesium free) at 4 C. Plates were washed 3x with PBS+0.05% TWEEN20 and blocked with PBS+3% milk for 1 hr, shaking at RT. Blocking solution was removed and samples serially diluted in block were added and incubated for 1 hr shaking at RT. Plates were washed 3x as before and a secondary antibody was added (goat anti-hu IgG Fc-HRP—Southern Biotech L2047-05, 1:5000;
goat anti-mouse IgG Fc-HRP—Thermo Scientific, diluted 1:4,000; or mouse anti-penta-HIS-HRP, Qiagen, 1:1000), followed by shaking for 1 hr at RT. Plates were washed as before and signal was developed using TMB, the reaction stopped with H2SO4 and the absorbance read at 450 nm on an Envision plate reader (Perkin Elmer). An alternative detection method was also periodically employed in place of TMB/H2SO4. […] Time-resolved fluorescence was then measured at 320 and 615 nm using an EnVision® plate reader (EnVision® Multilabel Plate Reader, Perkin Elmer) following the manufacturer's methods.

EC50 [nM]	Binder
1.45	B10
0.355	B11

Molecular target: T3, Purified human GUCY2c ECD (recombinant, construct not stated) (human, UniProt P25092 24-430)
T3 construct: also called recombinant human GUCY2c; recombinant GUCY2c protein
Assay: direct ELISA, coated GUCY2c ECD

T3 sequence (P25092 24-430 limits assumed): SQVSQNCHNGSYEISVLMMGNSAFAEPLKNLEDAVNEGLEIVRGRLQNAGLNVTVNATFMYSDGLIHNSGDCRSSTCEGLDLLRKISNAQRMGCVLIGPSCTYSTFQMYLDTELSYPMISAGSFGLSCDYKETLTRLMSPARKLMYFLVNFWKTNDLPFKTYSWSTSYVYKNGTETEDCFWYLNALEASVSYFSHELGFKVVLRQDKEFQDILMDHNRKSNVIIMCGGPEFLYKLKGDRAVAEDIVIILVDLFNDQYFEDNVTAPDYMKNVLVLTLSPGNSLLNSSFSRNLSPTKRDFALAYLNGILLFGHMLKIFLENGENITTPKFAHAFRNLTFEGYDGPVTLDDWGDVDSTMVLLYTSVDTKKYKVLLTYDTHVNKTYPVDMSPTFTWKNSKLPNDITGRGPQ

EC50 [nM]	Binder
23.5	B10
79.8	B11

Molecular target: T4, Human GUCY2C ECD-muIgG2a (human)
T4 construct: also called human GUCY2c ECD-mouse IgG2a Fc fusion protein; huGUCY2c-mIgG2a
Assay: sandwich ELISA: CD3 epsilon-delta coated, GUCY2c ECD-mIgG2a Fc in solution

T4 sequence (chain, as listed by the source limits assumed): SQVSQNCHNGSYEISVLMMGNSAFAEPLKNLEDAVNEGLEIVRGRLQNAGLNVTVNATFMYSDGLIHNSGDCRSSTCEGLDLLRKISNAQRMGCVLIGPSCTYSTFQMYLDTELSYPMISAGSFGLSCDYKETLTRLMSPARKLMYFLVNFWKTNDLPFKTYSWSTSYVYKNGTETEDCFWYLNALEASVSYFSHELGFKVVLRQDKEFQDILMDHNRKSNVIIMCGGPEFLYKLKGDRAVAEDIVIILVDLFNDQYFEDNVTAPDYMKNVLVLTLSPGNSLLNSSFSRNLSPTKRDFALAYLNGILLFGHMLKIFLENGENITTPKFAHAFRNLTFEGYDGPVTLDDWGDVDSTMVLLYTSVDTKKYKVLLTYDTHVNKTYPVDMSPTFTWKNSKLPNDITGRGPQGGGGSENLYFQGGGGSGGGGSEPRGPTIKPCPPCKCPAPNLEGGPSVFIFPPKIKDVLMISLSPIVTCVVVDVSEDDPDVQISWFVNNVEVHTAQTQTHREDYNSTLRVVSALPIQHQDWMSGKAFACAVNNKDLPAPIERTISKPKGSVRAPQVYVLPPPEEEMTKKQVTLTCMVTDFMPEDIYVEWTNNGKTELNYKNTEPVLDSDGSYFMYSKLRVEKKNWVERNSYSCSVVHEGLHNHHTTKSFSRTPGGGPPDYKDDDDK

EC50 [nM]	Binder
9.68	B10
5.04	B11

Molecular target: Human GUCY2c on tumor cells (T84, HT55) (human, UniProt P25092 24-1073)
Assay: cell-based or functional assay

Sequence of Human GUCY2c on tumor cells (T84, HT55) (P25092 24-1073 limits assumed): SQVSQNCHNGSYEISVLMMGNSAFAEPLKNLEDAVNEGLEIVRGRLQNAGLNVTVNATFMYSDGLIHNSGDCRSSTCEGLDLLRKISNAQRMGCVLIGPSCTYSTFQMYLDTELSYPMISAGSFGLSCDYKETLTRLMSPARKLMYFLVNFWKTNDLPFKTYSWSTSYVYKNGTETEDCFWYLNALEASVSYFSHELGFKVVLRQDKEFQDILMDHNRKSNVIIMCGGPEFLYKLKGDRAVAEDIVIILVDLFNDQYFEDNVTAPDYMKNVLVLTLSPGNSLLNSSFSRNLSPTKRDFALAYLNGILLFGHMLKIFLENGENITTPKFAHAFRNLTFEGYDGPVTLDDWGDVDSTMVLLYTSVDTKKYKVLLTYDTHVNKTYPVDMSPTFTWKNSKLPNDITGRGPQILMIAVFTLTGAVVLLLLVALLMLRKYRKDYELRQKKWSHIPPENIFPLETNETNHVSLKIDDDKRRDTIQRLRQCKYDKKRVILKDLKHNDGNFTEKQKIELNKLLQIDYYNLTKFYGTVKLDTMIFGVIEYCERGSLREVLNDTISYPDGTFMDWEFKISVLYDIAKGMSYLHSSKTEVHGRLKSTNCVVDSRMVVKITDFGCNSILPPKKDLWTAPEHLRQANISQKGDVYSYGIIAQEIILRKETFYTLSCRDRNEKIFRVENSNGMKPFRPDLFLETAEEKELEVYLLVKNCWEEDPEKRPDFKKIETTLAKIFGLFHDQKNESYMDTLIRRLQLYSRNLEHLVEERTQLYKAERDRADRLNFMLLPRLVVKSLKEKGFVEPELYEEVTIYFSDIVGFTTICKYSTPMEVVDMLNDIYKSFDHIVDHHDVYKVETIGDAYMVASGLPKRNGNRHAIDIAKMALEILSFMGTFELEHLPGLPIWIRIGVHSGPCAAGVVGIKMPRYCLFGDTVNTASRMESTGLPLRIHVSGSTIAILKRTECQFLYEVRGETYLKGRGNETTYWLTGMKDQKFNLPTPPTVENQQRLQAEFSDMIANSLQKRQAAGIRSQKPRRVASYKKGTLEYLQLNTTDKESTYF

Binder	T84 tumor cell EC50 (T cell cytotoxicity, E:T 10:1) [nM]
B10	7.8
B11	7.51
